From IntAct's records for PubMed 25278935

B1: Tyrosine-protein kinase YwqD (Bacillus subtilis), P96716 (parent)
chain: MALRKNRGSRMQRNVIAMTEPKSLNSEQYRTIRTNIEFASVDRQMKSVMITSACPGEGKSTTAANLAVVFAQQGKKVLLIDADLRKPTVHTAFFLENTVGLTSVLLKKSSMEQAVQASNEKHLDVLTSGPIPPNPAELLSSKWMKELAYEACAAYDMVIFDTPPILAVADAQILGNVADGSVLVISSGKTEKEQAAKAKEALATCKSKLLGAIMNGKKLSKHSEYGYYGTKDNFMQK
partner: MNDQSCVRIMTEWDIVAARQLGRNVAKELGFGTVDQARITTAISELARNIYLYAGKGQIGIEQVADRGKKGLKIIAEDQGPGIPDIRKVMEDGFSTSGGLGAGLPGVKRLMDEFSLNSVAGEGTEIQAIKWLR
B2: Serine/threonine-protein kinase RsbT (Bacillus subtilis), P42411 (parent)
chain: B1 partner
partner: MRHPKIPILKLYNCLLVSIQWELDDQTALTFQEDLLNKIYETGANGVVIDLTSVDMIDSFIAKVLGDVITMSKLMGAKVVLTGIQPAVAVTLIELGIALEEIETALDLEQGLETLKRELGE
B3: HPr kinase/phosphorylase (Bacillus subtilis), O34483 (parent)
chain: MAKVRTKDVMEQFNLELISGEEGINRPITMSDLSRPGIEIAGYFTYYPRERVQLLGKTELSFFEQLPEEEKKQRMDSLCTDVTPAIILSRDMPIPQELIDASEKNGVPVLRSPLKTTRLSSRLTNFLESRLAPTTAIHGVLVDIYGVGVLITGKSGVGKSETALELVKRGHRLVADDCVEIRQEDQDTLVGNAPELIEHLLEIRGLGIINVMTLFGAGAVRSNKRITIVMNLELWEQGKQYDRLGLEEETMKIIDTEITKLTIPVRPGRNLAVIIEVAAMNFRLKRMGLNAAEQFTNKLADVIEDGEQEE
partner: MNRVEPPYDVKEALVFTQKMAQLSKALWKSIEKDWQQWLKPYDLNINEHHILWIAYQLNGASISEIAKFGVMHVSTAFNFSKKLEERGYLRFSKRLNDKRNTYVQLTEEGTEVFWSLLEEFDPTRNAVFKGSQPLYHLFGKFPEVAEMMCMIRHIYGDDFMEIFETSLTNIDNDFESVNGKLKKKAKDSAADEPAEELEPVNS
B4: Anti-sigma F factor (Bacillus subtilis), P10728 (parent)
chain: MKNEMHLEFSALSQNESFARVTVASFIAQLDPTMDELTEIKTVVSEAVTNAIIHGYEENCEGKVYISVTLEDHVVYMTIRDEGLGITDLEEARQPLFTTKPELERSGMGFTIMENFMDDVSIDSSPEMGTTIRLTKHLSKSKALCN
partner: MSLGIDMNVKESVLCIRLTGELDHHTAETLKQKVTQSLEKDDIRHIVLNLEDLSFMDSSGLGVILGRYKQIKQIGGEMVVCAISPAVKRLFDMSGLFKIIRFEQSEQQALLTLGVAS

Variants of: B1
Details: with rsbt_bacsu rsbT

Q: For MALRKNRGSRMQRNVIAMTEPKSLNSEQYRTIRTNIEFASVDRQMKSVMITSACPGEGKSTTAANLAVVFAQQGKKVLLIAADLRKPTVHTAFFLENTVGLTSVLLKKSSMEQAVQASNEKHLDVLTSGPIPPNPAELLSSKWMKELAYEACAAYDMVIFDTPPILAVADAQILGNVADGSVLVISSGKTEKEQAAKAKEALATCKSKLLGAIMNGKKLSKHSEYGYYGTKDNFMQK [D81A], which “effect of a mutation on the interaction” value is on record?
A: increasing interaction strength

Variants of: B2
Details: with rsbs_bacsu rsbS

Q: How did the “effect of a mutation on the interaction” value turn out when MNDQSCVRIMTEWDIVAARQLGRNVAKELGFGTVDQARITTAISELARAIYLYAGKGQIGIEQVADRGKKGLKIIAEDQGPGIPDIRKVMEDGFSTSGGLGAGLPGVKRLMDEFSLNSVAGEGTEIQAIKWLR was run?
A: disrupting interaction strength

Variants of: B3
Details: with hpr_bacsu hpr

Q: For MAKVRTKDVMEQFNLELISGEEGINRPITMSDLSRPGIEIAGYFTYYPRERVMLLGKTELSFFEQLPEEEKKQRMDSLCTDVTPAIILSRDMPIPQELIDASEKNGVPVLRSPLKTTRLSSRLTNFLESRLAPTTAIHGVLVDIYGVGVLITGKSGVGKSETALELVKRGHRLVADDCVEIRQEDQDTLVGNAPELIEHLLEIRGLGIINVMTLFGAGAVRSNKRITIVMNLELWEQGKQYDRLGLEEETMKIIDTEITKLTIPVRPGRNLAVIIEVAAMNFRLKRMGLNAAEQFTNKLADVIEDGEQEE [Q53M], which “effect of a mutation on the interaction” value is on record?
A: disrupting interaction strength

Variants of: B4
Details: with sp2aa_bacsu spoIIAA

Q: MKNEMHLEFSALSQNESFARVTVASFIAQLDPTMDELTEIKTVVSEAVTAAIIHGYEENCEGKVYISVTLEDHVVYMTIRDEGLGITDLEEARQPLFTTKPELERSGMGFTIMENFMDDVSIDSSPEMGTTIRLTKHLSKSKALCN was tested. Which “effect of a mutation on the interaction” value did it give?
A: disrupting interaction strength
